Values of other authors, collected in PMC10886550.

Assays:
[1] = target: DNA gyrase (Escherichia coli) (UniProt P0AES4)
[2] = target: GyrB (Escherichia coli) (UniProt P0AES6)

UniProt P0AES4, sequence (P0AES4 2-875): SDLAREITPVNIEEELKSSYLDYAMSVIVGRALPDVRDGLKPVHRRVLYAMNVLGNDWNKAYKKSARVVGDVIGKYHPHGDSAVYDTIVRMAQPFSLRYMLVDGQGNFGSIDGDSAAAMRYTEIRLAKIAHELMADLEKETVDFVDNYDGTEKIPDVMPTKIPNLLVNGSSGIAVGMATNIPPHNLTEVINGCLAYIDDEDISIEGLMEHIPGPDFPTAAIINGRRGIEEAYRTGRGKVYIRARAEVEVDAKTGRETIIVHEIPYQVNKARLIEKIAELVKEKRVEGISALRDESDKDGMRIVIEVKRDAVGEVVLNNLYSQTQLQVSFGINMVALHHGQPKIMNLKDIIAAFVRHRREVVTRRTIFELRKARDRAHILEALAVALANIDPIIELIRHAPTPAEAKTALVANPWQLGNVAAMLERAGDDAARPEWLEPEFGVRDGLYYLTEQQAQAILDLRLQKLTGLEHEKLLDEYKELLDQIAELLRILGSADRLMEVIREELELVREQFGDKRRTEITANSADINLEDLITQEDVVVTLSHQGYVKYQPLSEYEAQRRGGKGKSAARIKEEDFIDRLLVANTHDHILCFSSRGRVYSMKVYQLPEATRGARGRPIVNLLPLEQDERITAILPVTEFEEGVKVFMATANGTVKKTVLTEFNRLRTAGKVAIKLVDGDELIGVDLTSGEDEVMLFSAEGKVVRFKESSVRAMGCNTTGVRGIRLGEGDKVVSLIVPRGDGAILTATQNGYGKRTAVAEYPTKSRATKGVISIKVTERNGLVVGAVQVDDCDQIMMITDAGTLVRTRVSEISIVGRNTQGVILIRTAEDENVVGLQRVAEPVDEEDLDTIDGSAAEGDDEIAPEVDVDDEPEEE

| Kd [1] | Kd [2] | Substance |
| --- | --- | --- |
| 26 µM |  | GyrI peptide 33-48 (from UniProt P33012) |
|  | 0.35 µM | YacG (from UniProt P0A8H8) |
